Consider nine substances from EP4371564A2.

Like-named read-outs stand apart in the source and are kept apart here.

The target of assay [1] is T4 capsid (empty head isolated from 10-amber 13-amber hoc-del soc-del T4 phage-infected E. coli) (bacteriophage T4) (UniProt P04535). Briefly: Cas9-Soc-gRNA RNP co-displayed with Cre-Hoc on the same T4 capsid.
Assay [2] shares this target. In words: Cas9-Soc in complex with gRNA displayed on T4 capsid.
Assay [3] has the same target. Briefly: Cas9-Soc in complex with siRNA displayed on T4 capsid.
For assay [4] the target is unchanged.
Assay [5] shares this target. Briefly: in vitro display on T4 heads, sedimentation, SDS-PAGE densitometry with gp23* as internal control.
The target is the same in assay [6]. In words: Cre-Hoc co-displayed with Cas9-Soc-gRNA RNP on the same T4 capsid.
For assay [7] the target is unchanged. Briefly: display on T4 capsids at increasing ratios, SDS-PAGE (FIG. 21).
The target is the same in assay [8]. Briefly: copies displayed per T4 capsid, Soc-RGD against RGD-Hoc.
Assay [9] shares this target. Briefly: Soc-TAT displayed on T4(Luci) capsids used for transduction (FIG. 28).
For assay [10] the target is unchanged. In words: display on T4 capsids at increasing ratios, SDS-PAGE (FIG. 20).

The substance “Cas9-Soc (SEQ ID NO: 16) (from UniProt Q99ZW2 1-1368)” came in with a molecules per AV (molecules per capsid) in [1] of 270. The copies per capsid (copies per capsid) in assay [2] and in assay [3] was 280 in each case. In addition, the Copies/ capsid (copies per capsid) in [4] was determined as 550.
In assay [5], Cpf1-Soc (SEQ ID NO: 17) showed a Copies/ capsid (copies per capsid) of 450.
Cre-Hoc (SEQ ID NO: 18) returned a molecules per AV (molecules per capsid) in assay [6] of 50. The substance further yielded a Copies/ capsid (copies per capsid) in assay [4] of 95. In [7], the ratio of protein molecules to binding sites at saturation (molecules per binding site) lay in the range of 15 to 20.
Turning to Cre-Soc (SEQ ID NO: 22), the Copies/ capsid (copies per capsid) in [4] worked out at 630.
Still for that read-out and setting: with GFP-Soc (from UniProt P03715 1-80) the figure was 660.
In assay [5], “RGD-Hoc (SEQ ID NO: 19) (from UniProt P18056 1-376)” returned a Copies/ capsid (copies per capsid) of 85.
Soc-RGD (from UniProt P03715 1-80): the Copies/ capsid (copies per capsid) in assay [4] was determined as 710. Besides, the fold copy number against RGD-Hoc in assay [8] stood at 8.3 fold.
The substance Soc-TAT (from UniProt P03715 1-80) showed a copies per capsid (copies per capsid) in [9] of 520. The same substance displayed a Copies/ capsid (copies per capsid) in assay [4] of 750.
On to “β-Gal-Soc (from UniProt P00722 2-1024; P03715 1-80) (enzyme)”, for which, in assay [4], the Copies/ capsid (copies per capsid) was determined as 320. Moreover, in [10], the ratio of protein molecules to binding sites at saturation (molecules per binding site) was 15 to 20.
